# Assay results reported in patent US20100160228A1 (VALTION TEKNILLINEN TUTKIMUSKESKUS, published 2010).
# B1: substrate-trapping mutant of TCPTP (TCPTP-D182A) (enzyme, UniProt P17706-2 1-387, looked up)
# chain: MPTTIEREFEELDTQRRWQPLYLEIRNESHDYPHRVAKFPENRNRNRYRDVSPYDHSRVKLQNAENDYINASLVDIEEAQRSYILTQGPLPNTCCHFWLMVWQQKTKAVVMLNRIVEKESVKCAQYWPTDDQEMLFKETGFSVKLLSEDVKSYYTVHLLQLENINSGETRTISHFHYTTWPAFGVPESPASFLNFLFKVRESGSLNPDHGPAVIHCSAGIGRSGTFSLVDTCLVLMEKGDDINIKQVLLNMRKYRMGLIQTPDQLRFSYMAIIEGAKCIKGDSSIQKRWKELSKEDLSPAFDHSPNKIMTEKYNGNRIGLEEEKLTGDRCTGLSSKMQDTMEENSESALRKRIREDRKATTAQKVQQMKQRLNENERKRKRPRLTDT
# notes: Expressed by transient transfection in HEK293 or PAE-Flt1 cells and immunoprecipitated from lysates with anti-TCPTP; also called pCG-TC45-D182A; T-cell protein tyrosine phosphatase D182A
# Biological target: T1, VEGFR1, stably expressed in PAE cells (PAE-Flt1) (UniProt P17948 27-1338, limits assumed)
# T1 construct: whole, on cells
# T1 sequence (P17948 27-1338 limits assumed): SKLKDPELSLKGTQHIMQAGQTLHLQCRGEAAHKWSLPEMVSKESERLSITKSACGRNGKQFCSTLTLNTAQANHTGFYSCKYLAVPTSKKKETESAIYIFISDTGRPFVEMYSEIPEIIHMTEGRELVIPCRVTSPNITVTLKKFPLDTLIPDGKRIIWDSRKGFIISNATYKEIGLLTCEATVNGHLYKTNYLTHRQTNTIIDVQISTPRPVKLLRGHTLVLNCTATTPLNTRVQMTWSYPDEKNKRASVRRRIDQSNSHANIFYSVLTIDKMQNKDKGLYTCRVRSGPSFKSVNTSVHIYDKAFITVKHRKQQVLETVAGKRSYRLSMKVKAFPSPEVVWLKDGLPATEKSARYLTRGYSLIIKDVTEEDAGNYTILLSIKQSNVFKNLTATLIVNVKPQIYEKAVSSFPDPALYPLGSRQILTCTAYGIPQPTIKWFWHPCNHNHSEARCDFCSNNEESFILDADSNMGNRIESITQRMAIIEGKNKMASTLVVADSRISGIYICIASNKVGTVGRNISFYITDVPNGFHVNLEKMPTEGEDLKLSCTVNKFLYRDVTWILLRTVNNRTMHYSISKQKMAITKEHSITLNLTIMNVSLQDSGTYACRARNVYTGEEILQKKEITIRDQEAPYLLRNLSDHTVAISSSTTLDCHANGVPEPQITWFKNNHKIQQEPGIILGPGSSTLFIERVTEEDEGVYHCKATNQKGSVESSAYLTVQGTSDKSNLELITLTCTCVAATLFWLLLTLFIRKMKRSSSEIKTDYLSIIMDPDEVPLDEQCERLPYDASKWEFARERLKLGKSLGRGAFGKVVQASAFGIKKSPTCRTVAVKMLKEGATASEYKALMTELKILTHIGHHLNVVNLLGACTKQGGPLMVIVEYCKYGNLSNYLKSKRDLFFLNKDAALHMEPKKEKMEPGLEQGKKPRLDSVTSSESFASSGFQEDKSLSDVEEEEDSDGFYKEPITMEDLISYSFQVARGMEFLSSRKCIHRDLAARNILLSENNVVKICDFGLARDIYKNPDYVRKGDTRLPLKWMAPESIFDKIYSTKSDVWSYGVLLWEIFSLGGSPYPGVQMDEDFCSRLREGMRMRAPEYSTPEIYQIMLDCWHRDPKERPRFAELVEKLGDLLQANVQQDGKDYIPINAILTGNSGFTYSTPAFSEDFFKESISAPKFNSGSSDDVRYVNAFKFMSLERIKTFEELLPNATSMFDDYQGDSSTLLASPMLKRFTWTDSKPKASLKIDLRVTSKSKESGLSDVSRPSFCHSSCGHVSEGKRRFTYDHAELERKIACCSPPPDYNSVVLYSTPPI
# Test: co-immunoprecipitation with anti-TCPTP from PAE-Flt1 cells transfected with the substrate-trapping mutant, immunoblot
# Method: Immunoprecipitations. […] After washings, the immunocomplexes were resolved on SDS-PAGE and subjected to immunoblotting. Aliquots of the original lysates (5% from IP input) were analyzed in parallel to control for protein expression.
binder,measurement,value
B1,binding result,no binding
